These results are taken from patent EP1255844B1 (MILLENNIUM PHARMACEUTICALS, INC., dated 2007).

The IC50 is the concentration that gives 50% inhibition. Higher therefore signals a need for much substance.

Values joined by “and” are separate entries in the source; they are usually repeats but may differ in a detail not shown here. Equal entries are not always repeated.

Test [1] concerns the target T1, human CC-chemokine receptor 2 (CCR2) as naturally expressed on THP-1 cells, THP-1 cell membranes, fresh human … (human, UniProt P41597 1-374).
T1 construct: whole, on cells; In one assay membranes of THP-1 cells were used instead of whole cells; also called CKR-2; MCP-1RA
In words: competition with 0.1 nM [125I]MCP-1 on fresh human PBMC, filtration and scintillation counting.

Test [2] concerns the target T1, human CC-chemokine receptor 2 (CCR2) as …. In words: competition with 0.1 nM [125I]MCP-1 on THP-1 cell membranes, filtration and scintillation counting.

T1 sequence (P41597 whole entry): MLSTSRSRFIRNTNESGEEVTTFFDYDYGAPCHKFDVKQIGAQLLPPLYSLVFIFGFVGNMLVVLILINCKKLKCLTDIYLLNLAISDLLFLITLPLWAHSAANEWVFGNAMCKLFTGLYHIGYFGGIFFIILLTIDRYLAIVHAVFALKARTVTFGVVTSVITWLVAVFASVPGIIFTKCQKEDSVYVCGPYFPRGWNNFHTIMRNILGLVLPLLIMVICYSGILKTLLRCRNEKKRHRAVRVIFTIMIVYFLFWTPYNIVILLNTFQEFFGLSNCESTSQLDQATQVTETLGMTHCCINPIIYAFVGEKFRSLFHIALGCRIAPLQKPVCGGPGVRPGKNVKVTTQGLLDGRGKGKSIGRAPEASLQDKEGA

B1: murine monoclonal antibody LS132.1D9 (1D9) (antibody, V domains shown)
VH: EVQLVESGGGLVQPKGSLKLSCAASGFSFNAYAMNWVRQAPGKGLEWVARIRTKNNNYATYYADSVKDRYTISRDDSESMLFLQMNNLKTEDTAMYYCVTFYGNGVWGTGTTVTVSS
VL: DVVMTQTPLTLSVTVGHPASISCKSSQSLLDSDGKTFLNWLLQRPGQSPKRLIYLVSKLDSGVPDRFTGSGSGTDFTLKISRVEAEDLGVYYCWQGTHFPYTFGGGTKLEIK
notes: Whole mouse monoclonal antibody from a hybridoma (supernatant or antibody); Kappa light chain; The controls are called isotype-matched and murine IgG2a, which implies IgG2a; also called mAb 1D9; mus-1D9
For B1, the IC50 in test [1] was 0.04 µg/mL and ~0.2 nM; in test [2], ~0.004 µg/mL and ~0.02 nM.
